# Patent US20220249685A1, “ANTI-MESOTHELIN ANTIBODIES AND IMMUNOCONJUGATES THEREOF” (Silverback Therapeutics, Inc., priority 2019, published 2022)
# Key:
# [1] = system: huPBMCs in the presence of HEK-293 cells transfected with human MSLN; test: TNFα production by huPBMCs with HEK-293 cells transfected with human MSLN; assay type: cell-based; details: overnight, AlphaLISA
# Method: Human Whole Blood was obtained from Bloodworks Northwest and collected in 10mL EDTA tubes. Human PBMCs were then isolated from the whole blood by Ficoll gradient centrifugation and resuspended in assay media (RPMI-1640 Medium supplemented with 10% Fetal Bovine Serum, 1 mM Sodium Pyruvate, 1× GlutaMAX-1, 1× Non-Essential Amino Acids, 10mM HEPES and 0.5% Penicillin/Streptomycin; all from Gibco). Tumor cells were removed from tissue culture flasks with HyQTASE (Hyclone), washed twice and resuspended in assay media.
# Human PBMCs isolated as described above were resuspended in assay media, and plated in 96-well flat bottom microtiter plates (125,000/well). MSLN-expressing HEK-293cells were then added (25,000/well) along with titrating concentrations of conjugated or unconjugated antibodies. Mock transfected HEK-293 cells were used as a negative control. After overnight culture, supernatants were harvested, and TNFα levels were determined by AlphaLISA.
# [2] = Tm of purified antibodies (Table 1); assay type: physicochemical; details: purified antibody
# Method: Six humanized heavy chains were co-transfected with 5 humanized light chains into the ExpiCHO expression system in a 30mL culture. The supernatant was analyzed via Octet to determine off rates and any that retained binding and contained less mouse sequence, were purified and further characterized. Clones 6 and 37 were selected for further optimization. An additional mutation in CDRH2, G55A, was introduced to reduce chemical modification of the neighboring Asparagine (N) residue. These humanized sequences are represented in SEQ ID NOs. 1-15.
# [3] = Analytical hydrophobic interaction chromatography (HIC) profile, incl. after 40° C. stress; assay type: physicochemical; details: TSKgel Butyl-NPR, ammonium sulfate
substance,measurement,setting,value
"SS1: chimeric monoclonal anti-mesothelin antibody IgG/K; VH SEQ ID NO: 25, VL SEQ ID NO: 26",TNFα production from huPBMCs,[1],did not stimulate TNFα production
same,Tm ° C.,[2],69 °C
same,profile on an analytical HIC column,[3],multiple variant species
